In PMC7060239 (2020):
Blank lines part the entries; values can stand above or below the binder they belong to.

How the values were obtained:
[1] = molecular target: T1, human DNMT1 RFTS domain, residues 351–600 (human, UniProt P26358 351-600); assay: ITC
T1 chain: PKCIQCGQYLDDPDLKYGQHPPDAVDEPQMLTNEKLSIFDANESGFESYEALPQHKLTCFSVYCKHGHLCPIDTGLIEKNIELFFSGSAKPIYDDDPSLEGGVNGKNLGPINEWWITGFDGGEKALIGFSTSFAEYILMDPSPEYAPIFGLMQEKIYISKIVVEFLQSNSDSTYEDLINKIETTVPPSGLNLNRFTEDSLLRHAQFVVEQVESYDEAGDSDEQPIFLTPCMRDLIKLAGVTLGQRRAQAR

[2] = molecular target: T2, PHD finger of human UHRF1 (residues 299–366) (human, UniProt Q96T88 299-366); assay: ITC
T2 chain: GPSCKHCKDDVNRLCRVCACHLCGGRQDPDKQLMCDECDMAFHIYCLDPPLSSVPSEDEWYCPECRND

- Kd [1]: 6 µM
B1: PAF15_(2-30) unmodified (peptide)
chain: VRTKADSVPGTYRKVVAARAPRKVLGSST
modifications: unmodified (no ubiquitin); taken as wild-type K15/K24, since the text describes K15C/K24C only for preparing the ubiquitylated analogs

- Kd [2]: 5.7 µM
Binder: VRTAADSVPG [hPAF15_(2-11)-K5A peptide]
